In patent publication US20210070881A1 (DENALI THERAPEUTICS, published 2021) one finds Kd, koff and kon data, which are given here for 37 molecules.

Positions count from the first letter of the chain named.

A word on the Kd: it is the free concentration of one partner at which half of the binding sites on the other are occupied at equilibrium, for simple one-to-one binding. As a reminder, the koff is a measure of how fast the partners let go of each other. Broadly, the kon is the second-order rate constant of association.

To fix the notation:
B1: 2H8.06 (antibody, human IgG1, V domains shown)
VH: EVQLQQSGAELVRPGTSVKLSCKASGYTFNNYWMHWVKQRPGQGLEWIGMIDPSDDDIKNNQKFKGKATLTVDTSSSTAYMQLISLTSEDSAVYYCARSGVALPYWGQGTLVTVSA
VL: DIVMTQSQKFMSKSVGDTVSVTCKASQDVGRNVAWYQQKSGQSPKSLIYSASHRYSGVPDRFTGSGSGTDFTLTISNVQSEDLADYFCQQYNSYPYTFGGGTRLEIK
notes: human IgG1/kappa; also called 2H8_HCvar6 + 2H8_LC
B2: 2H8.16 (antibody, human IgG1, V domains shown)
VH: EIQLQQSGTELVRPGTSVKLSCKASGYTFTNYWMHWVKQRPGQGLEWIGMIDPSAAYTNYNQNFKGKATLTVDTSSGTAYMQLSSLTSEDSAVYYCARSGVAFPYWGQGTTVTVSS
VL: B1 VL with V3Q, K13T, V15I, T18R, D28N, R31T, S40P, R54W, D85E, R103K
notes: human IgG1/kappa; also called 2H8_HCvar4 + 2H8_LCvar3
B3: 2H8.15 (antibody, human IgG1, V domains shown)
VH: EVQLQQSGAELVRPGTSVKLSCKASGYTFTSYWIHWVKQRPGQGLEWIGMIDPSDSYTKYNQKFKDKATLTVDTSSSTTYMHLSSLTSEDSAVYYCARSGVAFPYWGQRTLVTVSA
VL: B1 VL with V3Q, K13T, V15I, T18R, D28N, R31T, S40P, R54W, D85E, R103K
notes: human IgG1/kappa; also called 2H8_HCvar3 + 2H8_LCvar3
B4: 2H8.40 (antibody, human IgG1, V domains shown)
VH: B2 VH
VL: B1 VL with V3L, K13T, T18R, D28N, K39I, S46P, A84V, D85E, Y86F, R103K
notes: human IgG1/kappa; also called 2H8_HCvar4 + 2H8_LCvar7
B5: 2H8.21 (antibody, human IgG1, V domains shown)
VH: B3 VH
VL: B1 VL with K13T, T18R, V21I, D28N, R31T, S40P, S46A, H53Y, D85E, R103K
notes: human IgG1/kappa; also called 2H8_HCvar3 + 2H8_LCvar4
B6: 2H8.27 (antibody, human IgG1, V domains shown)
VH: B3 VH
VL: B1 VL with K13T, T18R, D28N, R31T, S46A, D85E, R103K
notes: human IgG1/kappa; also called 2H8_HCvar3 + 2H8_LCvar5
B7: 2H8.34 (antibody, human IgG1, V domains shown)
VH: B2 VH
VL: B1 VL with V3Q, T18R, D28N, R31S
notes: human IgG1/kappa; also called 2H8_HCvar4 + 2H8_LCvar6
B8: 2H8.09 (antibody, human IgG1, V domains shown)
VH: B3 VH
VL: B1 VL with K13T, T18R, D28N, R31T, S40P, S46A, D85E, P95M, R103K
notes: human IgG1/kappa; also called 2H8_HCvar3 + 2H8_LCvar2
B9: 2H8.36 (antibody, human IgG1, V domains shown)
VH: B1 VH
VL: B1 VL with V3Q, T18R, D28N, R31S
notes: human IgG1/kappa; also called 2H8_HCvar6 + 2H8_LCvar6
B10: 2H8.18 (antibody, human IgG1, V domains shown)
VH: B1 VH
VL: B1 VL with V3Q, K13T, V15I, T18R, D28N, R31T, S40P, R54W, D85E, R103K
notes: human IgG1/kappa; also called 2H8_HCvar6 + 2H8_LCvar3
B11: 2H8.24 (antibody, human IgG1, V domains shown)
VH: B1 VH
VL: B1 VL with K13T, T18R, V21I, D28N, R31T, S40P, S46A, H53Y, D85E, R103K
notes: human IgG1/kappa; also called 2H8_HCvar6 + 2H8_LCvar4
B12: 2H8.12 (antibody, human IgG1, V domains shown)
VH: B1 VH
VL: B1 VL with K13T, T18R, D28N, R31T, S40P, S46A, D85E, P95M, R103K
notes: human IgG1/kappa; also called 2H8_HCvar6 + 2H8_LCvar2
B13: hu2H8v1 (antibody, V domains shown)
VH: QVQLVQSGAEVKKPGASVKVSCKASGYTFTNFWIHWVRQAPGQGLEWMGMIDPSDSYTKYNQKFKARVTMTRDTSTSTTYMELSSLRSEDTAVYYCARSGVAFPYWGQGTLVTVSS
VL: DIQMTQSPSSLSASVGDRVTITCKASQDVGRNVAWYQQKPGKAPKLLIYSASHRYSGVPSRFSGSGSGTDFTLTISSLQPEDFATYYCQQYNSYPYTFGQGTKVEIK
notes: humanized; also called hu2H8_HC1 + hu2H8_LC1
B14: hu2H8v21 (antibody, V domains shown)
VH: B13 VH with V37L, R72V
VL: B13 VL with A43S, L46S
notes: humanized; also called hu2H8_HC3 + hu2H8_LC4
B15: hu2H8v5 (antibody, V domains shown)
VH: B13 VH with V68A, M70L, R72V, T79V
VL: B13 VL
notes: humanized; also called hu2H8_HC6 + hu2H8_LC1
B16: hu2H8v12 (antibody, V domains shown)
VH: B13 VH with V37L, V68A, M70L, R72V
VL: B13 VL with A43S
notes: humanized; also called hu2H8_HC7 + hu2H8_LC2
B17: hu2H8v8 (antibody, V domains shown)
VH: B13 VH with V37L
VL: B13 VL with A43S
notes: humanized; also called hu2H8_HC2 + hu2H8_LC2
B18: hu2H8v24 (antibody, V domains shown)
VH: B13 VH with V37L, V68A, M70L, R72V
VL: B13 VL with A43S, L46S
notes: humanized; also called hu2H8_HC7 + hu2H8_LC4
B19: hu2H8v23 (antibody, V domains shown)
VH: B13 VH with V68A, M70L, R72V, T79V
VL: B13 VL with A43S, L46S
notes: humanized; also called hu2H8_HC6 + hu2H8_LC4
B20: hu2H8v2 (antibody, V domains shown)
VH: B13 VH with V37L
VL: B13 VL
notes: humanized; also called hu2H8_HC2 + hu2H8_LC1
B21: hu2H8v20 (antibody, V domains shown)
VH: B13 VH with V37L
VL: B13 VL with A43S, L46S
notes: humanized; also called hu2H8_HC2 + hu2H8_LC4
B22: hu2H8v22 (antibody, V domains shown)
VH: B13 VH with V68A, M70L, T79V
VL: B13 VL with A43S, L46S
notes: humanized; also called hu2H8_HC5 + hu2H8_LC4
B23: hu2H8v9 (antibody, V domains shown)
VH: B13 VH with V37L, R72V
VL: B13 VL with A43S
notes: humanized; also called hu2H8_HC3 + hu2H8_LC2
B24: hu2H8v25 (antibody, V domains shown)
VH: B13 VH
VL: B13 VL with A43S, L46S, Y87F
notes: humanized; also called hu2H8_HC1 + hu2H8_LC5
B25: hu2H8v18 (antibody, V domains shown)
VH: B13 VH with V37L, V68A, M70L, R72V
VL: B13 VL with L46S
notes: humanized; also called hu2H8_HC7 + hu2H8_LC3
B26: hu2H8v6 (antibody, V domains shown)
VH: B13 VH with V37L, V68A, M70L, R72V
VL: B13 VL
notes: humanized; also called hu2H8_HC7 + hu2H8_LC1
B27: hu2H8v11 (antibody, V domains shown)
VH: B13 VH with V68A, M70L, R72V, T79V
VL: B13 VL with A43S
notes: humanized; also called hu2H8_HC6 + hu2H8_LC2
B28: hu2H8v10 (antibody, V domains shown)
VH: B13 VH with V68A, M70L, T79V
VL: B13 VL with A43S
notes: humanized
B29: hu2H8v15 (antibody, V domains shown)
VH: B13 VH with V37L, R72V
VL: B13 VL with L46S
notes: humanized; also called hu2H8_HC3 + hu2H8_LC3
B30: hu2H8v4 (antibody, V domains shown)
VH: B13 VH with V68A, M70L, T79V
VL: B13 VL
notes: humanized; also called hu2H8_HC5 + hu2H8_LC1
B31: hu2H8v19 (antibody, V domains shown)
VH: B13 VH
VL: B13 VL with A43S, L46S
notes: humanized; also called hu2H8_HC1 + hu2H8_LC4
B32: hu2H8v16 (antibody, V domains shown)
VH: B13 VH with V68A, M70L, T79V
VL: B13 VL with L46S
notes: humanized; also called hu2H8_HC5 + hu2H8_LC3
B33: hu2H8v13 (antibody, V domains shown)
VH: B13 VH
VL: B13 VL with L46S
notes: humanized; also called hu2H8_HC1 + hu2H8_LC3
B34: hu2H8v14 (antibody, V domains shown)
VH: B13 VH with V37L
VL: B13 VL with L46S
notes: humanized; also called hu2H8_HC2 + hu2H8_LC3
B35: hu2H8v7 (antibody, V domains shown)
VH: B13 VH
VL: B13 VL with A43S
notes: humanized; also called hu2H8_HC1 + hu2H8_LC2
B36: hu2H8v3 (antibody, V domains shown)
VH: B13 VH with V37L, R72V
VL: B13 VL
notes: humanized; also called hu2H8_HC3 + hu2H8_LC1
B37: hu2H8v26 (antibody, V domains shown)
VH: B13 VH with V37L
VL: B13 VL with A43S, L46S, Y87F
notes: humanized; also called hu2H8_HC2 + hu2H8_LC5

T1 sequence (P56817 22-457): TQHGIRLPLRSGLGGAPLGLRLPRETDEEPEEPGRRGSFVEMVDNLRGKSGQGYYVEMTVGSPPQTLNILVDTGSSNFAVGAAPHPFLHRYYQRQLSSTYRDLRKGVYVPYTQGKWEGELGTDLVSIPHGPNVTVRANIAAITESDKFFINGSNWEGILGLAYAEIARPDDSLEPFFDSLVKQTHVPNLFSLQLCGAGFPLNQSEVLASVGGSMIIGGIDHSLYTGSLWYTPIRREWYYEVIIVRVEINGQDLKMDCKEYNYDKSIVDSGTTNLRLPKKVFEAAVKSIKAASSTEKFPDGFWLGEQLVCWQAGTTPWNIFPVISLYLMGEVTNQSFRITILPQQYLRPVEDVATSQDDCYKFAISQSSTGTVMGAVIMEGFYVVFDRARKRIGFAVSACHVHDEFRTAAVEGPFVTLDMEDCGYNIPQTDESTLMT

The first experiment addresses T1, recombinant BACE1 (BACE1 extracellular domain, R&D Systems Cat#931-AS) (UniProt P56817 22-457).
T1 construct: extracellular domain; also called BACE1 extracellular domain protein
The experiment in a line: SPR Biacore.
For B1, the Kd amounted to 16 nM, the koff is 0.000264 s⁻¹ and the kon was determined as 16500 M⁻¹ s⁻¹.

Take B2: the Kd came to 37.8 nM, the koff is 0.000631 s⁻¹ and the kon came to 16700 M⁻¹ s⁻¹.

On to B3, for which the Kd was 22.8 nM, the koff came to 0.000278 s⁻¹ and the on-rate constant (kon) amounted to 12200 M⁻¹ s⁻¹.

As for B4, the Kd came to 19.1 nM, the koff was 0.000456 s⁻¹ and the association rate constant (kon) is 23900 M⁻¹ s⁻¹.

For the molecule B5, the Kd was 90.5 nM, the dissociation rate constant (koff) came to 0.00104 s⁻¹ and the on-rate (kon) was found to be 11400 M⁻¹ s⁻¹.

For the molecule B6, the Kd turned out to be 17 nM, the dissociation rate constant (koff) turned out to be 0.00024 s⁻¹ and the kon came out at 14100 M⁻¹ s⁻¹.

For the molecule B7, the Kd stood at 25.5 nM, the koff amounted to 0.000425 s⁻¹ and the kon was found to be 16700 M⁻¹ s⁻¹.

Take B8: the Kd amounted to 18.3 nM, the koff came out at 0.000228 s⁻¹ and the kon is 12500 M⁻¹ s⁻¹.

In the case of B9, the Kd was 23.5 nM, the koff amounted to 0.000273 s⁻¹ and the on-rate (kon) stood at 11600 M⁻¹ s⁻¹.

For B10, the Kd turned out to be 32.4 nM, the koff is 0.00039 s⁻¹ and the kon is 12000 M⁻¹ s⁻¹.

On to B11, for which the Kd is 183 nM, the koff is 0.00243 s⁻¹ and the kon amounted to 13300 M⁻¹ s⁻¹.

For the molecule B12, the Kd was 171 nM, the koff came out at 0.00166 s⁻¹ and the kon was found to be 9680 M⁻¹ s⁻¹.

The target in the next experiment is T1, recombinant BACE1 (BACE1 extracellular …). The experiment in a line: SPR Biacore. The source holds these as a separate data set. Background: In SPR one partner is held on a chip, and binding of the other changes the refractive index at the surface.
In the case of B13, the Kd stood at 135 nM.

For B14, the Kd was found to be 13.5 nM.

With B15, the Kd is 96.3 nM.

For the molecule B16, the Kd was found to be 171 nM.

As to B17, the Kd was 155 nM.

B18: the Kd was 74 nM.

Take B19: the Kd was 28 nM.

As for B20, the Kd was 185 nM.

As to B21, the Kd was 13.2 nM.

In the case of B22, the dissociation constant Kd is 21.9 nM.

With B23, the Kd was found to be 130 nM.

With B24, the Kd worked out at 22.1 nM.

B25: the Kd was 20.7 nM.

With B26, the Kd was found to be 109 nM.

For B27, the Kd amounted to 88.3 nM.

On to B28, for which the Kd was 160 nM.

For B29, the Kd came to 16.4 nM.

On to B30, for which the Kd came to 169 nM.

In the case of B31, the Kd came out at 17.4 nM.

In the case of B32, the Kd was determined as 25.6 nM.

B33: the Kd amounted to 22.8 nM.

Consider B34, for which the Kd was found to be 17.7 nM.

Consider B35, for which the Kd was 150 nM.

For B36, the Kd came out at 172 nM.

In the case of B37, the equilibrium dissociation constant (Kd) was 16.3 nM.
